Measurements as given in patent US6838446B1, “Vector for expression of GPI-enzyme hybrid” (AstraZeneca AB, priority 1999, dated 2005).
Where a chain is given by its changes, count along the chain named.

B1: bacterial CPG2: purified, bacterially expressed CPG2 used as a standard (Sigma C4053) (protein, UniProt P06621 23-415, looked up)
Carboxypeptidase G2: ALAQKRDNVLFQAATDEQPAVIKTLEKLVNIETGTGDAEGIAAAGNFLEAELKNLGFTVTRSKSAGLVVGDNIVGKIKGRGGKNLLLMSHMDTVYLKGILAKAPFRVEGDKAYGPGIADDKGGNAVILHTLKLLKEYGVRDYGTITVLFNTDEEKGSFGSRDLIQEEAKLADYVLSFEPTSAGDEKLSLGTSGIAYVQVNITGKASHAGAAPELGVNALVEASDLVLRTMNIDDKAKNLRFNWTIAKAGNVSNIIPASATLNADVRYARNEDFDAAMKTLEERAQQKKLPEADVKVIVTRGRPAFNAGEGGKKLVDKAVAYYKEAGGTLGVEERTGGGTDAAYAALSGKPVIESLGLPGFGYHSDKAEYVDISAIPRRLYMAARLIMDLGAGK
B2: CPG2(Q3): CPG2 with asparagine at positions 222, 264 & 272 mutated to glutamine, secreted form (protein, UniProt P06621 23-415, looked up, variant N222Q N264Q N272Q)
Carboxypeptidase G2: B1 Carboxypeptidase G2 with N200Q, N242Q, N250Q
modifications: secreted form
notes: CPG2 with asparagine at positions 222, 264 & 272 mutated to glutamine, secreted form
B3: CPG2: carboxypeptidase G2 with kappa light chain secretory leader, unaltered glycosylation sites, expressed from mammalian cells (pNG3/RC/CPG2) (protein, UniProt P06621 23-415, looked up)
Carboxypeptidase G2: B1 Carboxypeptidase G2
modifications: kappa light chain secretory leader

What was measured:
[1] = bacterially expressed standard (Sigma C4053); cited from earlier work
[2] = HPLC based CPG2 enzyme activity assay with CPG2 capture ELISA, supernatants of transiently transfected COS 7 cells; format: biochemical; details: for specific activity of unpurified protein in crude supernatant, expressed in presence of tunicamycin / specific activity of unpurified protein in crude supernatant: COS 7 transient plasmid expression; for specific activity of unpurified protein in crude supernatant, expressed in presence of tunicamycin: 10 μg/ml tunicamycin (unglycosylated protein); for specific activity of unpurified protein in crude supernatant: tunicamycin absent, for CPG2 the combined activity of three protein forms (glycosylated and unglycosylated)
Experimental: Transient tranfection of COS 7 cells can be achieved using a LIPOFECTIN™ based procedure. LIPOFECTIN™ Reagent (Gibco BRL Cat. No. 18292-011) is a 1:1 (w/w) liposome formulation of the cationic lipid DOTMA and DOPE in membrane filtered water. It binds spontaneously with DNA to form a lipid-DNA complex (Felgner et al., Proc. Natl. Acad Sci. USA (1987) 84, 7431. COS 7 cells are seeded into a 6 well plate a 2×10^5 cell/2 ml/well, from a subconfluent culture and incubated overnight at 37°, 5% CO2. A LIPOFECTIN™/serum free medium mix is made up containing 120 μl LIPOFECTIN™ plus 480 μl serum free medium and incubated at room temperature for 30 minutes. A DNA/serum free medium mix is prepared by mixing 12 μg DNA with 600 μl serum free medium. The LIPOFECTIN™/serum free medium mix is added to the DNA/serum free medium mix and left at room temperature for 15 mins. The cells are washed once with 2 ml serum free-medium, then 800 μl serum free media added plus 200 μl LIPOFECTIN™/DNA mix/well and incubated for 5 hours at 37°, 5% CO2. The LIPOFECIN™/DNA mix is removed from the cells and normal growth media added after which the cells are incubated for 48-72 hours at 37°, 5% CO2 when the supernatants are harvested.
COS 7 cells can also be transiently transfected in the presence of the glycosylation inhibitor tunicamycin. The transfection procedure is repeated as above, but after incubating for 5 hours at 37°, 5% CO2, 10 μg/ml tunicamycin (Sigma T7765) is added into the normal growth media.
(§1) For the CPG2 capture ELISA, 96 well plates precoated with goat anti-mouse IgG are used (PIERCE REACII-BIND™ 15134 plates). A second layer of mouse monoclonal anti-CPG2 diluted 1:800 in PBS/0.05% TWEEN™/BSA is added by overnight incubation at 4°. In between each binding step the plate is washed 3 times with PBS/0.05% TWEEN™. 100 μl test sample is added per well and doubling dilutions in PBS/0.05%TWEEN™ carried out across the plate. A fourth layer of rabbit polyclonal anti-CPG2 diluted 1:2500 in PBS/0.05% TWEEN™/2% BSA is added followed by a final layer of goat anit-rabbit IgG Horse Radish Peroxidase Labelled Antibody (DAKO PO448) diluted 1:1000 in PBS/0.05% TWEEN™/2% BSA. To detect binding, 100 μl per well of developing solution is added [one capsule of phosphate-citrate buffer (Sigma P4922) dissolved in 100 ml water to which is added one 30 mg tablet o-phenyldiamine dihydrochloride (Sigma P4812)] and the reaction stopped after 5 mins by adding 75 μl 2M H2SO4, and the absorbance read at 490 nm.
To measure CPG2 enzyme activity in cell supernatant samples at HPLC based CPG2 enzyme assay can be used. 125 βl cell supernatant is pulsed in a micro-centrifuge to remove cell debris and 375 μl fresh reaction buffer (PBS/0.2 mM ZnCl2) added. Upon addition of 100 μM methotrexate, a substrate for the CPG2 enzyme, the reaction is incubated at 37° for 1 hour. The reaction is stopped by the addition of 500 μl methanol/0.2% Trifluoroacetio acid. The 1 ml sample is placed in a capped vial and assayed using HPLC. An isocratic separation with a mobile phase containing: 60% Methanol/40%, 60 mM Ammonium formate/0.1% Trifluoroacetic acid is used with an S5SC×column (Hichrom). 60 μl of sample is injected and the absorbance at 300 nm measured over a total run time of 8 mins/sample giving expected retention times for methotrexate and metabolite of 3.9 and 5.6 respectively.
The two plasmids pNG3/RC/CPG2 and pNG3/RC/CPG2(Q3) (which encoded the glycosylatable and Q3 variant secretory forms of the CPG2 protein respectively) were transfected into COS-7 cells using the LIPOFECTIN™ transfection procedure. To confirm that the mutagenesis of CPG2 to CPG2(Q3) had removed all potential glycosylation sites, the two proteins were also expressed in the presence of the glycosylation inhibitor, tunicamycin. After 72 h of expression the cell supernatants were harvested for analysis. […]

[3] = HPLC based CPG2 enzyme activity assay with CPG2 capture ELISA, supernatants of adenovirally infected CHO K1 cells; format: biochemical; details: RAd infected CHO K1 cells, supernatant 48 hours after infection
Experimental: as §1
To measure CPG2 enzyme activity in cell supernatant samples at HPLC based CPG2 enzyme assay can be used. […] 60 μl of sample is injected and the absorbance at 300 nm measured over a total run time of 8 mins/sample giving expected retention times for methotrexate and metabolite of 3.9 and 5.6 respectively. […]

Molecule	specific activity of purified bacterial CPG2 [1]	specific activity of unpurified protein in crude supernatant, expressed in presence of tunicamycin [2]	specific activity of unpurified protein in crude supernatant [2]	reduction of enzyme activity by mutagenesis of CPG2 to CPG2(Q3) ([2]; as printed: compared with bacterial expressed enzyme)	specific activity, fold lower than wild type bacterial enzyme ([2]; unpurified protein, COS 7 supernatant)	specific activity of virally expressed secretable enzyme [3]
B1	500 units/mg	–	–	–	–	–
B2	–	90-124 units/mg	71-120 units/mg	2 fold	approximately 5 fold	180 units/mg
B3	–	165-210 units/mg	61-87 units/mg	–	–	71 units/mg
